Series [1] addresses T1, I-CreI_3115 chain 1;I-CreI_3115 chain 2 (;, UniProt P05725;P05725 1-163;1-163, Y33G;Q38K;Q44K;R68Y;R70S;D75N;I77Y;I132V|G19S;Y33V;Q38R;S40Q;Q44D;R68A;R70S;D75K …).
T1 sequence 1: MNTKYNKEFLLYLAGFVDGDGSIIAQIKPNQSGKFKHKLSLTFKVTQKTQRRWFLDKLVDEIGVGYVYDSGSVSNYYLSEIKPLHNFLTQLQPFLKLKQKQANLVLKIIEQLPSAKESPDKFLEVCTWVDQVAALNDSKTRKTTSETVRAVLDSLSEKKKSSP
T1 sequence 2: T1 sequence 1 with G19S, G33V, K38R, S40Q, K44D, Y68A, N75K, Y77R, V132I
In words: MST; 2 mM CaCl2; labelled DNA; MST at 25 C: 50 mM Tris pH 8.0 (I-CreI_3115; 2 or 10 mM CaCl2) or 50 mM Hepes pH 7.5 (I-CreI_D75N; 10 mM CaCl2), 300 mM NaCl, 0.5 mM TCEP, 0.05% Tween-20. The following applies: protein: recombinant;recombinant; tags: ;; copies: 1;1; label: Cy5 on coding strand (5'); blunt.

In series [2] the target is T2, I-CreI_D75N (UniProt P05725 1-163, D75N).
T2 sequence: T1 sequence 1 with G33Y, K38Q, K44Q, Y68R, S70R, Y77I, V132I
In words: crystal structure; 2 mM Ca2+; MST at 25 C: 50 mM Tris pH 8.0 (I-CreI_3115; 2 or 10 mM CaCl2) or 50 mM Hepes pH 7.5 (I-CreI_D75N; 10 mM CaCl2), 300 mM NaCl, 0.5 mM TCEP, 0.05% Tween-20. The following applies: protein: recombinant; chain copies: 2; blunt; self-annealed palindrome.

The target of series [3] is T2, I-CreI_D75N. The series can be described thus: crystal structure; 2 mM Mg2+; uncleaved DNA; MST at 25 C: 50 mM Tris pH 8.0 (I-CreI_3115; 2 or 10 mM CaCl2) or 50 mM Hepes pH 7.5 (I-CreI_D75N; 10 mM CaCl2), 300 mM NaCl, 0.5 mM TCEP, 0.05% Tween-20. The settings on record: protein: recombinant; chain copies: 2; blunt.

The values below come from article PMC6035192, “Understanding the indirect DNA read-out specificity of I-CreI Meganuclease”.

Positions count from the first letter of the chain named.

B1: I-CreI_3115_target (Cy5) (dsDNA)
DNA 1: TCAGACTTCTCCACAGGAGTCAGA
DNA 2: TCTGACTCCTGTGGAGAAGTCTGA
Take B1: the Kd in series [1] turned out to be 90 nM.

B2: I-CreI_D75N_target (dsDNA)
DNA 1: TCAAAACGTCGTACGACGTTTTGA
DNA 2: TCAAAACGTCGTACGACGTTTTGA
For the molecule B2, the binding result in the series with I-CreI_D75N [2] is listed as “binds”.

B3: I-CreI_D75N_target-null (dsDNA)
DNA 1: TCAAAACTGCGTACGACGTTTTGA
DNA 2: TCAAAACGTCGTACGCAGTTTTGA
B3: the binding result in the series with I-CreI_D75N [3] is listed as “binds”.
